Laboratory results taken from paper PMC6028919, “Scc2 Is a Potent Activator of Cohesin’s ATPase that Promotes Loading by Binding Scc1 without Pds5” (Molecular Cell, 2018).

Key:
[1] = molecular target: cohesin tetramer (Smc1, Smc3, Scc1, Scc3) (S. cerevisiae) (UniProt P32908)
[2] = molecular target: T1, cohesin tetramer (Smc1, Smc3, Scc1, Scc3) (S. cerevisiae, UniProt P32908 1-1225; P47037 1-1230; Q12158 1-566; P40541 1-1150); assay: co-IP; GFP-Scc2 held by anti-GFP antibody on Protein G Dynabeads; tetramers and GFP-Scc2 in an ATPase reaction, 25°C, 45 min, then beads 45 min at room temperature; washes with 100 mM NaCl; Coomassie-stained SDS-PAGE; conditions: both partners purified
T1 construct: Smc1, S. cerevisiae, synthetic codon-optimised gene; Smc3, S. cerevisiae, synthetic codon-optimised gene; Scc1 (kleisin; Mcd1), S. cerevisiae, synthetic codon-optimised gene; Scc3, S. cerevisiae, synthetic codon-optimised gene; also called wild-type tetramers; source: Sf9, co-expressed (baculovirus), purified (StrepTrap, gel filtration); not shown: 2xStrepII, C-terminal, …
T1 sequence (P32908 whole entry, chain 1 of 4): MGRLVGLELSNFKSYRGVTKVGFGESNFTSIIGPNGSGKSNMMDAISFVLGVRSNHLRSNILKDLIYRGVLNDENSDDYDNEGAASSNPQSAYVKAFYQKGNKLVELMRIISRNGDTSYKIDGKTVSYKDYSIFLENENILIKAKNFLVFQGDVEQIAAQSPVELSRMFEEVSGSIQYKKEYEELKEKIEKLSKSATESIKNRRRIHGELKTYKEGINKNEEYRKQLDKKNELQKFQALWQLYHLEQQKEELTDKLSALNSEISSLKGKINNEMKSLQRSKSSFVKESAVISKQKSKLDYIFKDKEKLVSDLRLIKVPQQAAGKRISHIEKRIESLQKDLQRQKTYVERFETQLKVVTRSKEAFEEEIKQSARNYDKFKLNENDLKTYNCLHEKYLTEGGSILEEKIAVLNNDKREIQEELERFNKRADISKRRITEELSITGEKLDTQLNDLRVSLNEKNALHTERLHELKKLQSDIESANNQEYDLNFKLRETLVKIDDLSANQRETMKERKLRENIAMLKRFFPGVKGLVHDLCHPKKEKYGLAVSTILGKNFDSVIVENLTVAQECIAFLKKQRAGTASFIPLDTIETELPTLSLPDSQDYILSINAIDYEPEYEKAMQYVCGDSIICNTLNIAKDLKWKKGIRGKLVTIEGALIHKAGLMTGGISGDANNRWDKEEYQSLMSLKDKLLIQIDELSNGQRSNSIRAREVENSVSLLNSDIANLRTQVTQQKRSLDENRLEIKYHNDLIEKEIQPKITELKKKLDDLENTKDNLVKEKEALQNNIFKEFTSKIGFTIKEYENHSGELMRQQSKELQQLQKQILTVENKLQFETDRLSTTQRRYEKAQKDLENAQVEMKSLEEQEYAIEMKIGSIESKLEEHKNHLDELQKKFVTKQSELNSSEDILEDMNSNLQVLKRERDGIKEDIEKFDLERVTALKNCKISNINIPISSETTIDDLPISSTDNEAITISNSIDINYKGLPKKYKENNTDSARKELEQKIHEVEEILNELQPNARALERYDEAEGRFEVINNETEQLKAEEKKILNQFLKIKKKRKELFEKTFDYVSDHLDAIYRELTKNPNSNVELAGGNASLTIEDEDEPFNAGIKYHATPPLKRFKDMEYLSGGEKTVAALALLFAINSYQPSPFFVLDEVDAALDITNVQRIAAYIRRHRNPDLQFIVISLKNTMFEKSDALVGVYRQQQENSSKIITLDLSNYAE
T1 sequence (P47037 whole entry, chain 2 of 4): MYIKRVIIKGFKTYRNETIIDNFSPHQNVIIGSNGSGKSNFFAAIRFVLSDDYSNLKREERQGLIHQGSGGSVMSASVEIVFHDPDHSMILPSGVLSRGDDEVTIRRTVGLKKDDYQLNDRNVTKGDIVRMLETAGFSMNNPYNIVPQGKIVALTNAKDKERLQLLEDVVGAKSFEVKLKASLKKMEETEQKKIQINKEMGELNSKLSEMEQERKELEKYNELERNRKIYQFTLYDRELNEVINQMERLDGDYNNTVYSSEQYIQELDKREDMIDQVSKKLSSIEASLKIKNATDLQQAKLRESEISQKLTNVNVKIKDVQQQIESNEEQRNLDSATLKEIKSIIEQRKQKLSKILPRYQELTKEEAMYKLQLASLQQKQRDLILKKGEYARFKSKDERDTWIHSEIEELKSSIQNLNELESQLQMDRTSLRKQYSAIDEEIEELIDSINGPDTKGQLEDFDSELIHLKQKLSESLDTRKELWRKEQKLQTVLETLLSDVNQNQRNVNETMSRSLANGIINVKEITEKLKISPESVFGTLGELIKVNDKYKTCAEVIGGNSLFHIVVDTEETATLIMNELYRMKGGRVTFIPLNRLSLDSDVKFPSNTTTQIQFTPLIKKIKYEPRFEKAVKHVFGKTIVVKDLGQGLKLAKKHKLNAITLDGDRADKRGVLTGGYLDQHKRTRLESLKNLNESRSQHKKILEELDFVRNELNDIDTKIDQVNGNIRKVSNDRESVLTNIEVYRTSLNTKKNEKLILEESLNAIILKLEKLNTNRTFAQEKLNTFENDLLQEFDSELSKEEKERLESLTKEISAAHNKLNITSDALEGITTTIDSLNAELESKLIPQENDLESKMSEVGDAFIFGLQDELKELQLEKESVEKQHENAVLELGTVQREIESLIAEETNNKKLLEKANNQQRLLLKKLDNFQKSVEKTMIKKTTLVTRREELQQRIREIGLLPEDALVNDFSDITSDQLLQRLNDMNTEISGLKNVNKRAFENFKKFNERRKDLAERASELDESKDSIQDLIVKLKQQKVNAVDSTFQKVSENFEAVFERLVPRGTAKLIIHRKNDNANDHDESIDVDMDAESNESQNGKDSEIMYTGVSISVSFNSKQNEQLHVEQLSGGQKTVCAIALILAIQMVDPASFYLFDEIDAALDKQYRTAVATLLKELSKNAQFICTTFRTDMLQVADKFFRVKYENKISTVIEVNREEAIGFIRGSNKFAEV
T1 sequence (Q12158 whole entry, chain 3 of 4): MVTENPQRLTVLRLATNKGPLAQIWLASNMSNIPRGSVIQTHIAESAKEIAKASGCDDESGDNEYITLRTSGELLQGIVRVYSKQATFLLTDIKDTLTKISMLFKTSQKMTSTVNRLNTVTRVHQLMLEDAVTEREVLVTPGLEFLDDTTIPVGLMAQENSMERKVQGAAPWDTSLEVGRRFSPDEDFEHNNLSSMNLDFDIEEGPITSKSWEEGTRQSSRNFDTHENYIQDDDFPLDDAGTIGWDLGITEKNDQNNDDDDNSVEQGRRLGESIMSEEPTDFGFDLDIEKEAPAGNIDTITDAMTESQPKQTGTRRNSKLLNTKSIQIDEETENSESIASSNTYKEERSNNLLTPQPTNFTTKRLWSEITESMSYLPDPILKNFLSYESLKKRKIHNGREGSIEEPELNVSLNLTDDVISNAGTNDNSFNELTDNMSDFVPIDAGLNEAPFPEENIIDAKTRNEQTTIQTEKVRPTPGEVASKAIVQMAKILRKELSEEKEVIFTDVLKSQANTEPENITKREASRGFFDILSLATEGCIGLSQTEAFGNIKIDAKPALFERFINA
T1 sequence (P40541 whole entry, chain 4 of 4): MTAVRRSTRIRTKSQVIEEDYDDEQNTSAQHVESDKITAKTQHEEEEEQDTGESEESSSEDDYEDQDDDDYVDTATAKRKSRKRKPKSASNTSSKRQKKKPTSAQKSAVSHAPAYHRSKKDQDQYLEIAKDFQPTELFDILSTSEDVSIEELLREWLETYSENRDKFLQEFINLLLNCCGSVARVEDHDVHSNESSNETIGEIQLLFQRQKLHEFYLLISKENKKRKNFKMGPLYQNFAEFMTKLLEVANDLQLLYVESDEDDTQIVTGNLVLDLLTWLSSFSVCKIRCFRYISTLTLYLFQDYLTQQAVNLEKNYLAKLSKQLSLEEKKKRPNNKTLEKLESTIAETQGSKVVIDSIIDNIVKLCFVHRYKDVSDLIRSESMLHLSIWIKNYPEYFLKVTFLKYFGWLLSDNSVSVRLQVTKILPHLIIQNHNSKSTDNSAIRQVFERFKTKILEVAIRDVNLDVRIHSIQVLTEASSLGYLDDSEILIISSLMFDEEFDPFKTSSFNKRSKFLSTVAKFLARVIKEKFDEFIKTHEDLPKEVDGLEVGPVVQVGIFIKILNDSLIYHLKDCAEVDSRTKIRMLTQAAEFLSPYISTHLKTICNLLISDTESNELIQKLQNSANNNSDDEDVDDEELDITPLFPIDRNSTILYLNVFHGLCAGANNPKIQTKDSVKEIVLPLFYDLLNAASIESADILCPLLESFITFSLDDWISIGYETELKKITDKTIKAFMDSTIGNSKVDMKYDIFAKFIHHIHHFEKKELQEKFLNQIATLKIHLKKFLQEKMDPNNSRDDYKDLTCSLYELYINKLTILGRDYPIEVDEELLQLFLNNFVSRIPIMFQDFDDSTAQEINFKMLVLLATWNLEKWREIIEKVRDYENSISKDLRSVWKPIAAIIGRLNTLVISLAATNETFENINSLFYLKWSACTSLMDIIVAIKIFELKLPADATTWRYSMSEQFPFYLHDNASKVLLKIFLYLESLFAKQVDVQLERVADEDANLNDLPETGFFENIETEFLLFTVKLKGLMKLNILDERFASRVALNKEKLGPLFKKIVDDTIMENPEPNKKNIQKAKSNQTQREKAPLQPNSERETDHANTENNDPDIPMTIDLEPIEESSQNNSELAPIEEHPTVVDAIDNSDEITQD

[3] = molecular target: T2, cohesin tetramer with scc1Δ152–256 (Smc1, Smc3, Scc1Δ152-256, Scc3) (S. cerevisiae, UniProt P32908 1-1225; P47037 1-1230; Q12158 1-566; P40541 1-1150, Δ152-256); assay: as above; conditions: both partners purified
T2 construct: Smc1, S. cerevisiae, synthetic codon-optimised gene; Smc3, S. cerevisiae, synthetic codon-optimised gene; Scc1 (kleisin; Mcd1), S. cerevisiae, synthetic codon-optimised gene; Scc3, S. cerevisiae, synthetic codon-optimised gene; source: Sf9, co-expressed (baculovirus), purified (StrepTrap, gel filtration); not shown: 2xStrepII, C-terminal, kept; copies: + + +

B1: His6-Pds5 (natural protein)
chain: MAKGAVTKLKFNSPIISTSDQLISTNELLDRLKALHEELASLDQDNTDLTGLDKYRDALVSRKLLKHKDVGIRAFTACCLSDILRLYAPDAPYTDAQLTDIFKLVLSQFEQLGDQENGYHIQQTYLITKLLEYRSIVLLADLPSSNNLLIELFHIFYDPNKSFPARLFNVIGGILGEVISEFDSVPLEVLRLIFNKFLTYNPNEIPEGLNVTSDCGYEVSLILCDTYSNRMSRHLTKYYSEIIHEATNDDNNSRLLTVVVKLHKLVLRLWETVPELINAVIGFIYHELSSENELFRKEATKLIGQILTSYSDLNFVSTHSDTFKAWISKIADISPDVRVEWTESIPQIIATREDISKELNQALAKTFIDSDPRVRRTSVMIFNKVPVTEIWKNITNKAIYTSLLHLAREKHKEVRELCINTMAKFYSNSLNEIERTYQNKEIWEIIDTIPSTLYNLYYINDLNINEQVDSVIFEYLLPFEPDNDKRVHRLLTVLSHFDKKAFTSFFAFNARQIKISFAISKYIDFSKFLNNQESMSSSQGPIVMNKYNQTLQWLASGLSDSTKAIDALETIKQFNDERIFYLLNACVTNDIPFLTFKNCYNELVSKLQTPGLFKKYNISTGASIMPRDIAKVIQILLFRASPIIYNVSNISVLLNLSNNSDAKQLDLKRRILDDISKVNPTLFKDQIRTLKTIIKDLDDPDAEKNDNLSLEEALKTLYKASKTLKDQVDFDDTFFFTKLYDFAVESKPEITKYATKLIALSPKAEETLKKIKIRILPLDLQKDKYFTSHIIVLMEIFKKFPHVLNDDSTDIISYLIKEVLLSNQVVGDSKKEIDWVEDSLLSDTKYSAIGNKVFTLKLFTNKLRSIAPDVPRDELAESFTEKTMKLFFYLIASGGELISEFNKEFYPTPSNYQTKLRCVAGIQVLKLARISNLNNFIKPSDIIKLINLVEDESLPVRKTFLEQLKDYVANELISIKFLPLVFFTAYEPDVELKTTTKIWINFTFGLKSFKKGTIFERALPRLIHAIAHHPDIVGGLDSEGDAYLNALTTAIDYLLFYFDSIAAQENFSLLYYLSERVKNYQDKLVEDEIDEEEGPQKEEAPKKHRPYGQKMYIIGELSQMILLNLKEKKNWQHSAYPGKLNLPSDLFKPFATVQEAQLSFKTYIPESLTEKIQNNIKAKIGRILHTSQTQRQRLQKRLLAHENNESQKKKKKVHHARSQADDEEGDGDRESDSDDDSYSPSNKNETKKGHENIVMKKLRVRKEVDYKDDEDDDIEMT
Q: B1 was tested. Which Scc2-stimulated ATPase activity of cohesin tetramers with a three-fold molar excess of Pds5, in the absence of DNA [1] did it give?
A: 2 fold

B2: GFP-ΔN132-Scc2-1xStrepII (domain or fragment, S. cerevisiae, UniProt Q04002 133-1493, looked up)
chain: KSEIVSRPEAKHKLESVTSNAGNLSFNDNSSNKKTKTSTGVTMTQANLAEQYLNDLKNILDIVGFDQNSAEIGNIEYWLQLPNKKFVLTTNCLTKLQMTIKNITDNPQLSNSIEITWLLRLLDVMVCNIKFSKSSLKMGLDDSMLRYIALLSTIVLFNIFLLGKNDSNLHRESYIMEPVNFLSDLIESLKILTIEYGSLKIEFDTFQEALELLPKYIRNGPFLDDNVTAKLVYIFSDLLMNNDIEATTNIQFQSFWDNVKRISSDILVSLFGSFDQQRGFIIEELLSHIEKLPTKRIQKKLRKVGNQNIYITDFTFTLMSMLENINCYSFCNQMKDIAPENIDLLKNEYKKQEEFLFNIVEHINDTILERFFKNPSALRYVIDNFVQDLLLLISSPQWPVTEKILSSLLKRLLSVYSPSMQVSANIETICLQLIGNIGSTIFDIKCSTRDHEDNNLIKMINYPETLPHFFKSFEECIAYNETIKCRRSATRFLWNLRLGTILILEEYTKDAKEQIITVDNELKKILEQIKDGGLGPELENREADFSTIKLDYFSILHAFELLNLYDPYLKLILSLLAKDKIKLRSTAIKCLSMLASKDKVILSNPMVKETIHRRLNDSSASVKDAILDLVSINSSYFEFYQQINNNYNDDSIMVRKHVLRINEKMYDETNDIVTKVYVIARILMKIEDEEDNIIDMARLILLNRWILKVHEVLDQPEKLKEISSSVLLVMSRVAIMNEKCSQLFDLFLNFYLLNKEAHSKEAYDKITHVLTILTDFLVQKIVELNSDDTNEKNSIVDKQNFLNLLAKFADSTVSFLTKDHITALYPYMVSDEKSDFHYYILQVFRCTFEKLANFKQKFLYDLETTLLSRLPKMNVREIDEAMPLIWSVATHRHDTARVAKACSSCLSHLHPYINKANNEEAAIVVDGKLQRLIYLSTGFARFCFPKPSNDKIAFLQEGETLYEHITKCLLVLSKDKITHVIRRVAVKNLTKLCGNHPKLFNSRHVLHLLDKEFQSDQLDIKLVILESLYDLFLLEERKSVRNTGVNSTLSSNSILKKKLLKTNRVEFANDGVCSALATRFLDNILQLCLLRDLKNSLVAIRLLKLILKFGYTNPSHSIPTVIALFASTSQYIRHVAYELLEDLFEKYETLVFSSLSRGVTKAIHYSIHTDEKYYYKHDHFLSLLEKLCGTGKKNGPKFFKVLKRIMQSYLDDITDLTSTNSSVQKSIFVLCTNISNITFVSQYDLVSLLKTIDLTTDRLKEVIMDEIGDNVSSLSVSEEKLSGIILIQLSLQDLGTYLLHLYGLRDDVLLLDIVEESELKNKQLPAKKPDISKFSAQLENIEQYSSNGKLLTYFRKHVKDT
notes: Scc2, S. cerevisiae, synthetic codon-optimised gene; also called GFP-Scc2; Scc2-GFP; source: Sf9, baculovirus, purified (StrepTrap, gel filtration); not shown: GFP, N-terminal, kept; StrepII, C-terminal, kept
Q: Does B2 bind [2]?
A: binds

Q: Does B2 bind [3]?
A: binds
